Protein production data for 23 sequences are collected here from a protein production outcome set (Wang et al. 2014).

The nature of this data set: label from the status in PepcDB records.
As for “MKLSIHGRKITLTDAIRKYAEEKISKVEKFNDSIIKIDATLAASKLKTGNAHVTEILAYLSGSTLKATATESDLYASIDKAVDIMESLLKKHKEKRSRAKVQDDTRKKSYSFDYIVEPEEKLSDEKKLVRVYLPLKPMEISEAILQLEYLNRVFFAFTNTTTGKMAVVYKRKDGDYGVIED”, the protein production result is on record as “failed”.
Take “MKLSINDLNVFVNTPKDIAKLCEDLSRLGLEVESCIPCIAPKNVVVGKILEKAPHKNAEKLSVCQVDVGKEVLQIVCGAKNVAPNQFVPVALNGALIGSTTIAKTELRGVESHGMICSSIELGFPKINDGILELDESVGELVLGKELNEYAPFNTHVLEISLTPNRGDCLSVLGIAREISAFYHTPLKPIKALNFTPKSGLITLSAGENIESHLAYYLICNHSLKTPLNIKLSLAHNNALSENDLNNFIEFSTHFSGVIMNAYSLNTTPMDLSVKNDENNLESVYINHQKRSTIAIKHQVQKDLSECLLLEASYTDPISLSLKLHALKDKTLQKDNALIYRSARGSNPNLSDGLNFLSAHLKATILESKQTEHSLKDRTLTFQLEDITEILGLAVEKEKIQGILKNLGFKVSVKEPNSKPQILEVIAPNFRHDIKTIQDIAEEILRFVGIDNLVSKPLHCVSSKNSNPNYDTHRFFENLKHKALACGFKEVIHYVFYSKEKQQKLGFEVLEDPLELQNPITTELNTLRTSLVCGLLDASLRNKNLGFKSIALYEKGSVYNSKREEIQKLGFLISGLQKKESYPDTKGKAWDFYSFAECVSKVIGDFSLEKLTTQTPINHPYQSAKIIQNHEIIGVIAKIHPKVIQELDLFESYYAEIDAFKLKRPAMLLKPFSIYPSSVRDLTLIIDENTAFSGIKKALKDAQIPNLSEILPLDIFKESNNSIALSVRCVIHSLEKTLNDEEVNSAVQKALEILEKEFNARLKG”: the protein production entry is “failed”.
Turning to “MKLTIIRLENFSDQDRIDLQKIWPEYSPSSLQVDDNYRIYAARFNERLLAAVRVTLSGTEGALDSLRVREVTRRRGVGQYLLEEVLRNNPDVSCWWMADAGVEDRGVMTAFMRALGFTAQQGGWEKH”, the protein production result is given as “failed”.
As for “MKLVCISDTHSLHRRIPEIPDGDVLIHAGDSLGQGSLENIEDLNDWLGTLPHRHKIVIAGNHDWAFQEMPGEARTALSNAVYLEDSGVEIEGNRFWGSPWTPTFMDWAFMLERGEPLYQKWQLVPDNTDVLITHGPPKGIGDEANLGFKCQNVGCVDLLARIHQLSLKAHIFGHIHEGYGEYLRGKTRLINASTCTARYEPRNAPIVVDVLEHHHHHH”, the protein production entry is on record as “failed”.
The entry for “MKLVFVTVNYNNIDETRKVLNCFSGLSHGENSVLYVVDNSDSKSECQSLDKENTNNKIKFLYPKENLGYLTGASFGVDFHYNNHGFDFDYLIILNNDIIFNVNEVLKSLEIFSQNNDAMMISPLVIDRGVNVNPYLTVRKSKRYMMFWNFILSNFFTFKVFHKINKYRALLSSKNNFSSTVQPFQKIYGSHGSVFILKNEYFLRGGSLRRLPFLYGEEIYIAEQVRKLGGDCVYYPSIKFEHKGSATLGNDTSRFKYLCIKQGHSFLYREFYS” is “failed”.
Regarding “MKLVTISGPPSSGKTAVLAGVIRAMMASGLKVGALKYDCLATNDDDVFRAIGVPVQTGLSGNLCPDHYFVSNIEECLDWGIREGFDFLLSESAGLCNRCAPHIKGVLAVCVIDNLMGATTPKKIGPMLKYADIVVITKGDIVSQAEREVFAFQVRRANPRAKIMHVNGITGQGAGELASQFLLAPETTCLDGSRLRFSMPAALCSYCLGETRIGMEFQLGNVKKIKMSEEPARLEHHHHHH”, the protein production entry is given as “not failed”.
“MKLYKLLILDIDGTLRDEVYGIPESAKHAIRLCQKNHCSVVICTGRSMGTIQDDVLSLGVDGYIAGGGNYIQYHGELLYNQSFNQRLIKEVVCLLKKREVAFSIESQEKVFMNQKAKEIFETMNQLKGTNSCINKQHIQEKITYENNIEEYKSQDIHKICLWSNEKVFDEVKDILQDKMELAQRDISSQYYEIIQKDFHKGKAIKRLQERLGVTQKETICFGDGQNDIVMFQASDVTIAMKNSHQQLKDIATSICEDIFDNGIYKELKRRNII”: the protein production entry is on record as “not failed”.
For the sequence “MKMANHPRPGDIIQESLDELNVSLREFARAMEIAPSTASRLLTGKAALTPEMAIKLSVVIGSSPQMWLNLQNAWSLAEAEKTVDVSRLRRLVTQSTP”, the protein production result is recorded as “not failed”.
With “MKMHRDSISLNSYEEMAEYYFSYVDQKPFNAYYERPATLSLLPDVAGKRVLDAGCAAGWYTQWLLDKGAAVTAVDFSAGMIEMTRKRVGERAEIIRADLNEPLDFMAKESCDIVLSSLALHYLKDWTLVMSEFHRILAKGGLLIFSVHHPFMDFTVFQRDNYFLTELLDDEWETQKGKVKVQFYRRPLSQILSAVLEAGFLLEKVLEPMPTEEFKSAQPDAYRRLTYKPQFLFLRARKP” the entry was “failed”.
Take “MKMKHMKPYTTMKTVLSTLAIALAFGPLHNAQACTRILYETGNQSYISGRSMDWADPSAATALWVFPKGMKRDGTVGDNPIKWSAKYGSIIVSFYDAGTADGMNEKGLVANMLYLKEAKWGDATKAGKPTLTAGAWAQYFLDNYATVEEAVTAMANPPFTIIAPSLPNGDAAALHLSISDVNGDSAIFEYIDGKLVIHHGSQYKVMTNSPTFDQQLALNTYWQQIGGSKFLPGTINAADRFVRASYALSASPKYRDNDLALASVFSQIRAVSVPLGITDPDRPNLAMTLWRTFADHTAKIYYFESAVFPAVSWLDMSKVDLTEGAAPKVVRVERGQPLAGELSAALKPAEPFKWLGAE”: the protein production entry is “failed”.
For “MKMKILGISFGTKNGNNDTMCKVALKGAKEAGAEVEFIQMSSINIKHCTGCCACVKTLLSGKGSMCVLKDDFEWLLDKMKDADGIVVSDPIFEEGASGLFHTIMDRFGPRADRGNNIIGTKVAEAIGGKIPDSRMLNDKVISFMGIGGSDWGTRVQCEHAMLALIPMWKVIDNAWFPWAKELVMDDTRLVQVHQIGLNIVEAAKDFEKASYQGEEGVCPHCHNRLFYLEPGTKKAICALCGIVGELDTISGKTIFSFPEEQLGHAHDTLPGKFIHGDDIKKMEGHYAEVRKTQEFKERKTSYNFIETLTKEKQAGVSLG”, the protein production result is given as “failed”.
“MKMKSKTKSCCQYTQWVVLALLTLIFASCKDNDDATGDFDPNKPVVISEFSPKEGGLGTRMLLYGENFGSDISKIKVTIGGQDSKVVGAKGKSLYCVVPAKAYDGDIKLSILNDEGEEIANTEANEKFVYQKKMLVTTFLGTMYDGNTKYDLKDGPFDDCGGFGGAVWLSFDPKNHNHLYLVGEQHPTRLIDFEKEYVSTVYSGLSKVRTICWTHEADSMIITNDQNNNDRPNNYILTRESGFKVITELTKGQNCNGAETHPINGELYFNSWNAGQVFRYDFTTQETTPLFTIQDSGWEFHIQFHPSGNYAYIVVVNQHYILRSDYDWKTKRLTTPYIVCGQQGAKDWVDGVGKKARMHAPRQGTFVKNPAYKGSSDEYDFYFCDRENHCIRILTPQGRVTTFAGRGSNGTSGYNDGDLRQEARFNHPEGIVYDEERECFFIGDRENRRIRKIGYEE”: the protein production result is “failed”.
With “MKMSELEKMLKGEHFDGASAEIEALRSQAGRLKLEINQSLDEAERYALQRELFGHLGHKSCVQPPFHCEFGKTIRIGDHTFINMNVVMLDGAPITIGDHVLIGPSTQFYTASHSLDYRRRQAWETICKPIVIEDDVWIGGNVVINQGVTIGARSVVAANSVVNQDVPPDTLVGGTPARILRSLKDPAESMAE”, the protein production entry was “not failed”.
As to “MKNDLFTEIIGQHTAKLLLTEAIERNQIAPAYLFSSEVEGVGKGKIALAFANAILSRGSRSAMAKHLPPPKGDAQGTASAGESKHLDILQIKPTYTENTSQQKSVPAIRVEQMREVIEFLSTSAVEGKQKVVIIYEADMLNPTAANKLLKTLEEPKTGTFILISSYPQKLLPTIKSRCQIIPFQRLTDEEVISVLKDQQIEATEKILAISSGSPGQAIANIKMLASISQEITKELEVPPDDILKALSLSNSISSWNHQTQLWLLTYLQYNWWQKLKSTKLLAKFTQARKQLLHHVTPRSVWDSLLLP”, the protein production entry is listed as “failed”.
As for “MKNEPIYNLLNSINSPDDLRRLEVDQLPEVCDELRQDIIKELSCNPGHFAASLGTVELTVALHYVYNTPYDRIVWDVGHQAYGHKILTGRREAFSTNRKLGGIRPFPSPEESEYDTFTCGHASNSISAALGMAVAAAKKGDDQRHVIAIIGDGSMSGGLAFEGLNNSSTTPNNLLIILNDNDMAIDRSVGGMKQYLFNLTTSNRYNQLRFKASRLLFKLGILNDERRKALIRFGNSLKSMAAQQQNIFEGMNIRYFGPIDGHDIKNLSRVLRDIKDLKGPKILHLHTIKGKGFAPAEKHATEWHAPGKFDPVTGERFVANTEGMPPLFQDVFGNTLVELAEANPRIVGVTPAMPSGCSMNILMSKMPKRAFDVGIAEGHAVTFSGGMAKDGLQPFCNIYSSFMQRAYDNIIHDVAIQNLPVVLCLDRAGLVGEDGPTHHGAFDMAYLRPIPNLTIASPMNEHELRRLMYTAQLPDKGPFVLRYPRGRGVLVDWKCPLEEIPVGKGRKLKDGKDIAVISIGPIGNKARSAIARAESESGRSIAHYDLRFLKPLDEELLHEVGRTFRHIVTIEDGTIQGGMGSAVLEFMADHEYTPTVKRIGIPDKFVQHGTVAELYQLCGMDEDSLTKELLKQCELLPDMSKIKELTN”, the protein production entry was “failed”.
“MKNETLHTQEDIIKMLDSLLRPAEPFWNEFYANREKDVPFFENVPDENLVSYIQKKRVSKGKVLELGCGPGRNAIYLANEGFDVTAVDVSIEGINWAKERALAKGVEIEFICDSIFNLEVQNEFDFVYDSGCLHHIPPHRRVNYVDLIKNALKSGGYFGLTCFAAGDLDERNGSEITDWDVYRGWSLQGGLAYSEEKLREIFKGFEVIEIRKMEQIEQPNTMFGESFLWTALFKKNLEHHHHHH”: the protein production entry is on record as “not failed”.
Turning to “MKNFLETIEDMILIINREGRLLYANTAVPKKLGYPHEELMSMHILTITSAGKMAEGEKILAELFAGKKESLPLSLEKKEGTSIPAKARIWQGKWHNEPCLFAIIKDLSKEERALEHHHHHH”, the protein production entry is recorded as “not failed”.
“MKNIVPPADIILNMLNEKPGADLDLLDFYKGYIRRASIEPSYSEEGFDKGKHINEDLRQEIEIAFLKGLVSLRHNICKKGSTVLIIVPSKSWFDLEHHHHHH”: the protein production entry is recorded as “failed”.
Take “MKNLNYGIIGLGKFGSVVADELIAGGHTVIVADKDEEALKSIQNPPSYAYILDSTNISALKEAGFHDVEVVIVSIGENVEKSILTLMALKDIGVKNIIAKATSNIHGQILSKLGATKVIYPEKESAKRLVKEFLTKDADYEVFDLSANTIRAIKINIDEKLAGNSLKHVAQNMKVISYKKLNSDWEILPDLETTTVYSGDVVILLGTVKELREFEH”: the protein production entry is on record as “failed”.
The entry for “MKNPVPRIIKTPVIAMYHDDRREELTIEVELSDVKDENITLMMHENSFYIKAFSETVEYLGSFFLDGPVDPEKAVAANNNGMLTIKVPYKEGFTCARFIHVD” is “failed”; for “MKNSEESSSSSEDTNNATDTNTSESQDISVNGPEKVGDVYEIDGGTAKVMAISNKETTVKTGPIQFTVKKVIAAVANEQLPFIDVQIESENTSDEVVRFRPSLAQLATSTGVQIDEPSLLESDRLLDEYVGKVNDSGSIIYVFDNEEDIKDLESIRLRISSPFNEDLKNLGDKLDLKINLEHLEHHHHHH” it is “not failed”.
Regarding “MKNSNRLIYTDNLEESLEETASLFEHHIKFYTEIIEKDKKVIKTFNKDFKIEHAKEVISKAHLKHSELNAFLIAAPSYGIEAQNALLKILEEPPNNVCFIMFAKSQNHVLATIKSRLIKEDKRQKIPLKPLDLDLSKLDLKDIYAFLKNLDKENFDSRENQRERIESLLESVNRHKIPLNEQELQAFDLAIKANSSYYKLSYNLLPLLLSLLSKKKTP”, the protein production entry was “failed”.
As for “MKNTELEQLINEKLNSAAISDYAPNGLQVEGKETVQKIVTGVTASQALLDEAVRLGADAVIVHHGYFWKGESPVIRGMKRNRLKTLLANDINLYGWHLPLDAHPELGNNAQLAALLGITVMGEIEPLVPWGELTMPVPGLELASWIEARLGRKPLWCGDTGPEVVQRVAWCTGGGQSFIDSAARFGVDAFITGEVSEQTIHSAREQGLHFYAAGHHATERGGIRALSEWLNENTDLDVTFIDIPNPA”, the protein production result was “not failed”.
